Assay results as given in PMC3761943 (Cell, 2013).

T1: kinesin-4ΔN (human kinesin-4, aa 733-1232) (human, UniProt O95239 733-1232)
T1 sequence (looked up): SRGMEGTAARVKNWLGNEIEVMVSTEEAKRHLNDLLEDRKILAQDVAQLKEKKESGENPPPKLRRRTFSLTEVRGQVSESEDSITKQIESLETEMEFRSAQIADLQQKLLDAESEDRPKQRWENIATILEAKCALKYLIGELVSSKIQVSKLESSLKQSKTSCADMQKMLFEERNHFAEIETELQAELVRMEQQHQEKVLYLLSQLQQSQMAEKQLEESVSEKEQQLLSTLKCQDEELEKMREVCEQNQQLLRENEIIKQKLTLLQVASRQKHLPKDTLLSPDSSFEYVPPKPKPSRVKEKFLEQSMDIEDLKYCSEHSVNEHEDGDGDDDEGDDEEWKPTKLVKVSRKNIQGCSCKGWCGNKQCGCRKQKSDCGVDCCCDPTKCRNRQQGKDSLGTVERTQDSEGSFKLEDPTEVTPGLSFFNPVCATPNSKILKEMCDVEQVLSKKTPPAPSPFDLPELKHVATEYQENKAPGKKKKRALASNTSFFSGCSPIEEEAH

T2: kinesin-4-GFP (human full-length kinesin-4, GFP-labeled) (human), O95239
T2 chain: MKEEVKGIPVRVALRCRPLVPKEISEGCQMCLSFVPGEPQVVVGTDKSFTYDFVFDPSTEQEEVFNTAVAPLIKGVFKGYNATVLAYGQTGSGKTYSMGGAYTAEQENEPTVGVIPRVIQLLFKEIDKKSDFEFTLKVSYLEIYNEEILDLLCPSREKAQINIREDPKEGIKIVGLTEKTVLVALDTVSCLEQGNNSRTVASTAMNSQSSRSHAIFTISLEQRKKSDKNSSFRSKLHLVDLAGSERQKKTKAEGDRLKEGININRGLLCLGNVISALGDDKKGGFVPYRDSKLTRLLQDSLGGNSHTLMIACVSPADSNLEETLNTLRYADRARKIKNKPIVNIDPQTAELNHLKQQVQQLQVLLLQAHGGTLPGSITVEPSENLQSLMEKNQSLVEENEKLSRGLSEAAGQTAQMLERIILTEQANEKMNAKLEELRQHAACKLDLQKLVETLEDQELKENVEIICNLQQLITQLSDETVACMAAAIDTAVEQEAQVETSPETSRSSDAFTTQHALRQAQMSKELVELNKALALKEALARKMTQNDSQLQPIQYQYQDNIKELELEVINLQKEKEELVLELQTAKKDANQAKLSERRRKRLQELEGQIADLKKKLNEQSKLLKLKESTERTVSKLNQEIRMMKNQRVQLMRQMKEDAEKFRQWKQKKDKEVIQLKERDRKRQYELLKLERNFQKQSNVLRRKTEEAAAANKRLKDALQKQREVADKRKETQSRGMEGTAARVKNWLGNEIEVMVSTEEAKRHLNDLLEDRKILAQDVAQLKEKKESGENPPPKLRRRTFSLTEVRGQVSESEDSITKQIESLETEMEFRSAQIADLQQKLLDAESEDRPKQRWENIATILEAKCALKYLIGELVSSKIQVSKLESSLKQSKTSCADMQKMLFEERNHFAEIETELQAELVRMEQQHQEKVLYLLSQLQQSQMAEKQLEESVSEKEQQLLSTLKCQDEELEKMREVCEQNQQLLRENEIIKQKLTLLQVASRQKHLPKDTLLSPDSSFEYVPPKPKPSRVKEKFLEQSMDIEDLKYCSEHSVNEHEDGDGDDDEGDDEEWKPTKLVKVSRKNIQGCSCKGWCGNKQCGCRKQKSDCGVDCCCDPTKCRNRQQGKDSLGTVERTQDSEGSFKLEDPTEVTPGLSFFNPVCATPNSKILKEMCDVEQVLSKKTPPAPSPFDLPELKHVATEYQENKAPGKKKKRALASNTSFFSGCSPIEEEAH

T3: kinesin-4 (human full-length, unlabeled) (human, UniProt O95239 1-1232)
T3 sequence (looked up): T2 chain

B1: PRC1NSΔC4 (human PRC1, aa 1-231) (domain or fragment, UniProt O43663 1-231, looked up)
chain: MRRSEVLAEESIVCLQKALNHLREIWELIGIPEDQRLQRTEVVKKHIKELLDMMIAEEESLKERLIKSISVCQKELNTLCSELHVEPFQEEGETTILQLEKDLRTQVELMRKQKKERKQELKLLQEQDQELCEILCMPHYDIDSASVPSLEELNQFRQHVTTLRETKASRREEFVSIKRQIILCMEALDHTPDTSFERDVVCEDEDAFCLSLENIATLQKLLRQLEMQKSQ
B2: PRC1NSΔC (human PRC1, aa 1-486) (domain or fragment, UniProt O43663 1-486, looked up)
chain: MRRSEVLAEESIVCLQKALNHLREIWELIGIPEDQRLQRTEVVKKHIKELLDMMIAEEESLKERLIKSISVCQKELNTLCSELHVEPFQEEGETTILQLEKDLRTQVELMRKQKKERKQELKLLQEQDQELCEILCMPHYDIDSASVPSLEELNQFRQHVTTLRETKASRREEFVSIKRQIILCMEALDHTPDTSFERDVVCEDEDAFCLSLENIATLQKLLRQLEMQKSQNEAVCEGLRTQIRELWDRLQIPEEEREAVATIMSGSKAKVRKALQLEVDRLEELKMQNMKKVIEAIRVELVQYWDQCFYSQEQRQAFAPFCAEDYTESLLQLHDAEIVRLKNYYEVHKELFEGVQKWEETWRLFLEFERKASDPNRFTNRGGNLLKEEKQRAKLQKMLPKLEEELKARIELWEQEHSKAFMVNGQKFMEYVAEQWEMHRLEKERAKQERQLKNKKQTETEMLYGSAPRTPSKRRGLAPNTPGKAR
B3: kinesin-4-GFP (human full-length kinesin-4, GFP-labeled), O95239 1-1232 (natural protein)
chain: T2 chain
B4: PRC1NSΔC3 (human PRC1, aa 1-168) (domain or fragment, UniProt O43663 1-168, looked up)
chain: MRRSEVLAEESIVCLQKALNHLREIWELIGIPEDQRLQRTEVVKKHIKELLDMMIAEEESLKERLIKSISVCQKELNTLCSELHVEPFQEEGETTILQLEKDLRTQVELMRKQKKERKQELKLLQEQDQELCEILCMPHYDIDSASVPSLEELNQFRQHVTTLRETKA
B5: PRC1NSΔC2 (human PRC1, aa 1-117) (domain or fragment, UniProt O43663 1-117, looked up)
chain: MRRSEVLAEESIVCLQKALNHLREIWELIGIPEDQRLQRTEVVKKHIKELLDMMIAEEESLKERLIKSISVCQKELNTLCSELHVEPFQEEGETTILQLEKDLRTQVELMRKQKKER
B6: PRC1NSΔC5 (human PRC1, aa 1-303) (domain or fragment, UniProt O43663 1-303, looked up)
chain: MRRSEVLAEESIVCLQKALNHLREIWELIGIPEDQRLQRTEVVKKHIKELLDMMIAEEESLKERLIKSISVCQKELNTLCSELHVEPFQEEGETTILQLEKDLRTQVELMRKQKKERKQELKLLQEQDQELCEILCMPHYDIDSASVPSLEELNQFRQHVTTLRETKASRREEFVSIKRQIILCMEALDHTPDTSFERDVVCEDEDAFCLSLENIATLQKLLRQLEMQKSQNEAVCEGLRTQIRELWDRLQIPEEEREAVATIMSGSKAKVRKALQLEVDRLEELKMQNMKKVIEAIRVELVQ
B7: GFP-PRC1 (human full-length PRC1, aa 1-620, GFP-labeled) (natural protein, UniProt O43663 1-620, looked up)
chain: MRRSEVLAEESIVCLQKALNHLREIWELIGIPEDQRLQRTEVVKKHIKELLDMMIAEEESLKERLIKSISVCQKELNTLCSELHVEPFQEEGETTILQLEKDLRTQVELMRKQKKERKQELKLLQEQDQELCEILCMPHYDIDSASVPSLEELNQFRQHVTTLRETKASRREEFVSIKRQIILCMEALDHTPDTSFERDVVCEDEDAFCLSLENIATLQKLLRQLEMQKSQNEAVCEGLRTQIRELWDRLQIPEEEREAVATIMSGSKAKVRKALQLEVDRLEELKMQNMKKVIEAIRVELVQYWDQCFYSQEQRQAFAPFCAEDYTESLLQLHDAEIVRLKNYYEVHKELFEGVQKWEETWRLFLEFERKASDPNRFTNRGGNLLKEEKQRAKLQKMLPKLEEELKARIELWEQEHSKAFMVNGQKFMEYVAEQWEMHRLEKERAKQERQLKNKKQTETEMLYGSAPRTPSKRRGLAPNTPGKARKLNTTTMSNATANSSIRPIFGGTVYHSPVSRLPPSGSKPVAASTCSGKKTPRTGRHGANKENLELNGSILSGGYPGSAPLQRNFSINSVASTYSEFAKDPSLSDSSTVGLQRELSKASKSDATSGILNSTNIQS
B8: PRC1ΔN2SΔC (human PRC1, aa 41-486) (domain or fragment, UniProt O43663 41-486, looked up)
chain: EVVKKHIKELLDMMIAEEESLKERLIKSISVCQKELNTLCSELHVEPFQEEGETTILQLEKDLRTQVELMRKQKKERKQELKLLQEQDQELCEILCMPHYDIDSASVPSLEELNQFRQHVTTLRETKASRREEFVSIKRQIILCMEALDHTPDTSFERDVVCEDEDAFCLSLENIATLQKLLRQLEMQKSQNEAVCEGLRTQIRELWDRLQIPEEEREAVATIMSGSKAKVRKALQLEVDRLEELKMQNMKKVIEAIRVELVQYWDQCFYSQEQRQAFAPFCAEDYTESLLQLHDAEIVRLKNYYEVHKELFEGVQKWEETWRLFLEFERKASDPNRFTNRGGNLLKEEKQRAKLQKMLPKLEEELKARIELWEQEHSKAFMVNGQKFMEYVAEQWEMHRLEKERAKQERQLKNKKQTETEMLYGSAPRTPSKRRGLAPNTPGKAR

Legend:
[1] = target: T1, kinesin-4ΔN (human kinesin-4, aa …); test: pull-down
[2] = target: T2, kinesin-4-GFP (human full-length …); test: single-molecule fluorescence intensity analysis; details: remark: other sources report otherwise
[3] = target: T3, kinesin-4 (human full-length, unlabeled); test: TIRF microscopy, end-tag formation on immobilized microtubules

Row | Binder | Kd [1] [nM] | other results
1 | B1 | 300 ± 40 | 
2 | B2 | 300 ± 30 | 
3 | B3 |  | stoichiometry N [2]: 2
4 | B4 | 1200 ± 400 | 
5 | B5 | 2300 ± 600 | 
6 | B6 | 300 ± 60 | 
7 | B7 |  | binding result [3]: binds
8 | B8 | 1600 ± 110 | 
